Target: T1, His-IRSp53 (UniProt Q9UQB8 1-552)
T1 sequence (looked up): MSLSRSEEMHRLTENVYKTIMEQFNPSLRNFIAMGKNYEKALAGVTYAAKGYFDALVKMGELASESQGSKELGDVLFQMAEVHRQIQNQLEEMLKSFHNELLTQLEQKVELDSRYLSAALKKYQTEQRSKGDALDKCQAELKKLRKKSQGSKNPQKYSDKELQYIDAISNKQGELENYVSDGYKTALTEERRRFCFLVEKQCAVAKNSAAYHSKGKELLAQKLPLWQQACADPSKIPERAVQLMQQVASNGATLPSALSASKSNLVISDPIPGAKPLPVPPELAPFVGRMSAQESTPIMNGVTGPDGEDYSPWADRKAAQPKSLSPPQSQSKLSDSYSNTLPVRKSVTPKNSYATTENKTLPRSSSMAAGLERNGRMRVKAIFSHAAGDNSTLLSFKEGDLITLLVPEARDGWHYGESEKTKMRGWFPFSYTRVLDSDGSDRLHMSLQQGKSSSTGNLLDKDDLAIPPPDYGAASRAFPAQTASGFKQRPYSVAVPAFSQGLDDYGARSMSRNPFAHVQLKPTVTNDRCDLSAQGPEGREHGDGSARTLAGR
Assay: far-Western, overlay or dot blot; 10 pmoles of His-IRSp53, GST-IRSp53-SH3 or BSA spotted onto nitrocellulose, incubated with increasing concentrations of purified VASP; anti-VASP immunoblot; fraction bound against total VASP; apparent dissociation constant
Conditions: both partners purified

B1: VASP, recombinant, cleaved from GST (natural protein, human, UniProt P50552 1-380, looked up)
chain: MSETVICSSRATVMLYDDGNKRWLPAGTGPQAFSRVQIYHNPTANSFRVVGRKMQPDQQVVINCAIVRGVKYNQATPNFHQWRDARQVWGLNFGSKEDAAQFAAGMASALEALEGGGPPPPPALPTWSVPNGPSPEEVEQQKRQQPGPSEHIERRVSNAGGPPAPPAGGPPPPPGPPPPPGPPPPPGLPPSGVPAAAHGAGGGPPPAPPLPAAQGPGGGGAGAPGLAAAIAGAKLRKVSKQEEASGGPTAPKAESGRSGGGGLMEEMNAMLARRRKATQVGEKTPKDESANQEEPEARVPAQSESVRRPWEKNSTTLPRMKSSSSVTTSETQPCTPSSSDYSDLQRVKQELLEEVKKELQKVKEEIIEAFVQELRKRGSP
notes: also called purified VASP; recombinant human VASP
- Kd: 12.5 nM

From PMC3140970, “The Eps8/IRSp53/VASP Network Differentially Controls Actin Capping and Bundling in Filopodia Formation” (PLoS Computational Biology, 2011)
